Assay results: the DeepSol protein solubility set

assay: soluble on expression in E. coli; label from the status in PepcDB or PDB records

Row | Sequence | soluble on expression in E. coli
1 | MSLTETQSLELAKELISRPSVTPDDRDCQKLMAERLHKIGFAAEEMHFGNTKNIWLRRGTKAPVVCFAGHTDVVPTGPVEKWDSPPFEPAERDGRLYGRGAADMKTSIACFVTACERFVAKHPNHQGSIALLITSDEEGDALDGTTKVVDVLKARDELIDYCIVGEPTAVDKLGDMIKNGRRGSLSGNLTVKGKQGHIAYPHLAINPVHTFAPALLELTQEVWDEGNEYFPPTSFQISNINGGTGATNVIPGELNVKFNFRFSTESTEAGLKQRVHAILDKHGVQYDLQWSCSGQPFLTQAGKLTDVARAAIAETCGIEAELSTTGGTSDGRFIKAMAQELIELGPSNATIHQINENVRLNDIPKLSAVYEGILVRLLAGNAVEGGSHHHHHH | soluble
2 | MSLTGREKNPSLTAKELEGGLLIVDEMSMVDTWLANTLLKAIPTNMQVIFVGDKDQLPSVGPGQVLHDLLQINEIPKCELNEIYRQGDGSSIIPLAHEIKEGKLPADFQKNQKDRSFFASDIGHIEEYIRQIVTKAKAKGFTPQDIQVLAPMYRGAAGIDALNKMMQEIFNPNDGKKKEVKWNDTVYRIGDKVLQLVNTPELNVFNGDMGEIVGITLAKDSEDKVDELVLQFDNNEVTYKRNEWNKITLSYCCSIHKAQGSEFRMVLLPMVHQYSRMLQRNLLYTAVTRSKELLILLGEVSAFETCVKNESASRMTMLKERIVNAEQEGHHHHHH | not soluble
3 | MSLTIKLIAIDIDGTLLNEKNELAQATIDAVQAAKAQGIKVVLCTGRPLTGVQPYLDAMDIDGDDQYAITFNGSVAQTISGKVLTNHSLTYEDYIDLEAWARKVRAHFQIETPDYIYTANKDISAYTIAESYLVRMLIQYREVSETPRDLTISKAMFVDYPQVIEQVKANMPQDFKDRFSVVQSAPYFIEVMNRRASKGGTLSELVDQLGLTADDVMTLGDQGNDLTMIKYAGLGVAMGNAIDEVKEAAQAVTLTNAENGVAAAIRKYALNEGHHHHHH | soluble
4 | MSLTKIVLITGANKGIGFETAKQIGKNGWTLLISTRNEERGKNAVHQLQQDGITAEWLQIDLNDIASIHKAARYVEERYPKLDGLINNAGISGDMQKNPLELKSSELEQLAKVNFLGNFEMIKSFTPILSRNHGRILNVTIPATPIGSFNPLGYLASKASLNSMIKSFAMYYKKHEIPVEIFGVLPGGISTDLNQHQSGLLIRTVQEGGESIAKVMMDRHNHQGKLLMRMGLTQLARNFVFRRHDEGHHHHHH | not soluble
5 | MSLTLPSEKPATDVAAQCFLNALIRETTDWKLTEYPPDELIIPLDEQKSLHFRVAYFSPTQHHRFAFPARLVTASGSYPVDFTTLSRLIIDKLRHQLFLPVPLCETFHQRVLESHAHTQQAIDARHDWTALREKALNFGEAEQALLTGHAFHPAPKSHEPFNRREAERYLPDMAPHFPLRWFSVDKTQIAGESLHLNLQQRLTRFAAENAPQLLNELSDNQWLFPLHPWQGEYLLQQGWCQALVAKGLIKDLGEAGTSWLPTTSSRSLYCATSRDMIKFSLSVRLTNSIRTLSVKEVKRGMRLARLAQTDGWQMLQVRFPTFRVMQEDGWAGLLDLNGNIMQESLFALRENLLVDQPKSQTNVLVSLTQAAPDGGDSLLVSAVKRLSDRLGITVQQAAHAWVDAYCQQVLKPLFTAEADYGLVLLAHQQNILVQMLGDLPVGFIYRDCQGSAFMPHATDWLDSIGEAQAENIFTHEQLLRYFPYYLLVNSTFAVTAALGAAGLDSESNLMARVRASLAEVRDQVTHKTCLNYVLESPYWNVKGNFFCYLNDHNENTIVDPSVIYFDFANPLQAQEGHHHHHH | soluble
6 | MSLTMVQVTLEVNGRQVAHEAPPRMHLGDFLRDQARLTGTHLGCEHGVCGACTVLVDGQPVRSCITYAVACEGRQVTTIEGYDGDPVMARLRAAFTKYHALQCGYCTPGMLTTSRDIVLRLPDADEARVRVELSGNLCRCTGYMGIVGAVMSVLRDLREQPDAAVQALRAAAADGRLPAPRGEQPIAFQPFTPSAPSGKGNQIVDAFTVPFPAAEVWAFMVDLPAVAACLPGAVIEETDGQRVKGKIAIKFGPMAAAFNGAARLERDEAAMRAVFRGAGQDSLSQSRATGDIAYQVEAVSENETRVKVDLQYALQGPLAQFSRSGLVQDFVRRMIADFGKNVTARLREGHHHHHH | soluble
7 | MSLTMYADLVLHGGSIATLDDKLEQAQAVAIAAGRIIAVGSDAHCLALAGPGTRRIGLGGACVMPGINDSHCHPDGQAVKAGRWDDVSQVATQQALLARIADFHRRMPAGAWYLGFRFDDTHSGGYPARQALEQAAPGRPVFLLRRDAQVGLASAPALAALLASGLATQVPPHCLDAATGLARGRGVFAFTTHIAAADSLDDYLEGFPTLFAEMGRMGITSVHNALTSALAVQAYRALHGAGRLPVRVGMMLNGRDQRLVDETLAAGLRFGAGDDRLYLLGVEYGSDGSTSGRTAAYYQPYVGEEGGDGRPANRGDVNFSAEDLAAKVGRVMAAGLQAAATGNGDRGIDFALDAFEQGLRAHPGAVPPRIEHCCCAPPAIQQRMAALGVIDSSAAGFAYNLGDAYLRNRPSAEMAWMWPHRDMLDRGVLVCAHSDAPVCERNPFLGMWSMVTRKTASGASLGAGQAITPLEAMRCYTANPARAEGQAARKGTLSPGKLADLIVLDRDPCAVDPDEIRHTQVLATLVGGQATYRAAGAPSWADELPMREEGHHHHHH | soluble
8 | MSLTNDYRFEFRPYQRRFLRSLTTNHGKWDIREGIILRLTDETLRVGWGEIAPISWFGSETLEQVLDFCRQLPGEITDETIFSIPDELPACQFGFESAWEWGSWKWGNEFFSMPNAQCPMPNAQSFSALLPFGEAALNQWETLWQKGYRTFKWKIGVDAIADELKIFESLTRILPASTKLRLDANGGLSYEEANLWLRTCDNLKANAELPLEIEFIEQPLPVEQFQQMLELSTSYETAIALDESVATLKQLAACHQQGWREIFVIKPGIVGSPSRLRKFCHQHQIDTVFSSVLETAIGRLAALQIAAELSRNNRAIGFGIDHFFEQEETWFQTLWNDLEGHHHHHH | soluble
9 | MSLTNEPLASRMRPNNIDEIISQEHLVGPKGIIRRMVETKRLSSMIFYGPPGIGKTSIAKAISGSTQFKFRQLNAVTNTKKDMQLIVEEAKMSGQVILLLDEIHRLDKAKQDFLLPHLENGKIVLIGATTSNPYHAINPAIRSRAQIFELYPLDENDVRVSLDRALNDSERGLASYNPKVDEDAMAYFTTQSQGDVRSALNALELAVLSSENIDQQRHITLQDAKDCLQKGAFVSDKDGDMHYDVMSAFQKSIRGSDVNAALHYLARLIEAGDLPTIVRRLLVISFEDVGLASPSAGQRTLAAIESAERLGFPEARIPLSQAVIELCLSPKSNSGINAIDAALSDIRKGHVGQIPDHLKDGHYAGAKELGRSIGYKYPHNYENGFVTQQYLPMKLKNRIYYEPKTTSKSEQQFKAVFDHINQSQQKNKEGHHHHHH | not soluble
10 | MSLTPFGVRSVVFDPDKGLVINGEHVPIRGVNNHHDLGALGAAFNVRAAERQLQLLQQMGANAIRMSHNPPAPELLELTDRMGLLVVDEVFDSWEMKKTPLDFHLIFPQWHEPDLRAMLRRDRNHPSIILWSVGNEVGEQYTGEAGAAIARRLHAIVHAEDPTRPATAAMNYASPEMPLPAALDVISLNYQGEGIRDTPEFEGTERIRKPPQYPAFHAKFPRKAILSSETASALSSRGVYLFPVSAQSSAPVRDGRGGDSVAHQVSAYELHAVDFGSSADKVFAALDRHPFVAGEFVWTGFDYLGEPTPYYSSRSSYSGILDLAGFPKDRYWLYQARWRPELPMAHLLPHWSWPGREGQVTPVHVFTSGDEAELFVNGVSQGRKRKAPLQYRLRWDAVVYQPGELRVQAYKHGRPWASDRVQTAGRATRMQLSADRNQIRGDGKDLSFITVRLLDADGRPAPTAGDRLRFRVEGAGELVATDNGDPTNLEAFVLPEREGHHHHHH | soluble
11 | MSLTPTVMVVDESRITFLAVKNALEKDGFNVIWAKNEQEAFTFLRREKIDLVFVDVFEGEESLNLIRRIREEFPDTKVAVLSAYVDKDLIINSVKAGAVDYILKPFRLDYLLERVKKIISSTPRVTVSLRKNIEDLEITLKFEDIVRKEIKRSNRTGSRFCVMYVKFEDIMRDYETIKKFFRETDYVLPISASEYLFVLTLTGKHGIEAVTRRMKEKLSERFSYTYVCYPDDGKTYEEIILTLKDRMAKPRGEGHHHHHH | soluble
12 | MSLTQHTRNFSFKVLTINTHKGFTAFNKRFILPELRDAVRTVGADIVCLQEVMGAHEVHPLHIENWPDTTHYEFLADTMWSDFAYGRNAVYPEGHHGNAVLSRYPIEHYENRDVSVGGSEKRGVLYCRITPPMLNRPIHVMCVHLGLRESHRQAQLTMLAGWVNALPESEPVLVAGDFNDWRQKAGPPLNAAGLEEIFTRAHGRPARTFPVSMPLLRLDRIYVKNANASSPTALPLRNWRHLSDHAPLSAEIHLEGHHHHHH | soluble
13 | MSLTQIFAHRGSKVDCPENTLAAFKKAIQVGCDGIEIDVHRTKDNQLVVIHDEAVDRTSNGSGLVRQLTLKQIRMLDAGSWFHPAYFCEKIPTLEEVLNFLEESGFQGTLNLEIKTNRYPYPKIEKQIAQTMQAKKRSFSHIYSSFNLFSLYVMRKHDPKAELAYLMKFHPFHFWLAQQLKFIKTVHSHSSFYENQVTKRKNKKPFRLWTVNNDDDMKKFFLSGIEGIITDKPEEAVKLRKSLQTKEGHHHHHH | not soluble
14 | MSLTQVHFTLKSEEIQSIIEYSVKDDVSKNILTTVFNQLMENQRTEYIQAKEYERTENRQSQRNGYYERSFTTRVGTLELKVPRTRDGHFSPTVFERYQRNEKALMASMLEMYVSGVSTRKVSKIVEELCGKSVSKSFVSSLTEQLEPMVNEWQNRLLSEKNYPYLMTDVLYIKVREENRVLSKSCHIAIGITKDGDREIIGFMIQSGESEETWTTFFEYLKERGLQGTELVISDAHKGLVSAIRKSFTNVSWQRCQVHFLRNIFTTIPKKNSKSFREAVKGIFKFTDINLAREAKNRLIHDYIDQPKYSKACASLDDGFEDAFQYTVQGNSHNRLKSTNLIERLNQEVRRREKIIRIFPNQTSANRLIGAVLMDLHDEWIYSSRKYINFDKEGHHHHHH | soluble
15 | MSLTSPSELRSGKTHRDENFPVASWIIHPRHRDLILAFYNFVRTADDIADHEMLDGDTKLEYLDLLEAELLGRGETQPEAVHLRRALAERGMPPRHALDLLTAFRMDVTKLRYEDWDEVIHYCRYSAMPVGRFMLDVHGESTTTWQASDALCAGLQINNHLQDCGKDYRTLNRVYLPRDVLDAAGAKVEDLGLQKSSPALLKCLQGLAVRTASLLGDGRPLAAEIKDYRLGLEVSVIQAYADRIVRMLQTRDPLSERVHLKPIEFVIASFGAMSSEIVRRSEGHHHHHH | soluble
16 | MSLTTATTSQTALRSRKDVPLSDCWDTKSLYASREVWQDELKKVGAEGAPFWPHLSENNFDIKQPSSLRELLTTVFSIERTLDKLYVYAHLTYDEDIANQEAAADLKSITFLLTSFVEEISWIQPALIALPQQVVNMLLASPELQEYHFYLKKLFRLAPHTGTSREEKILASSFPALEVAYKTFSSLTDSEIPFGEAVDSEGKSHPLSHALASLYMQSTDRELRKNTYQKQCQRHHGYRLSLANLLNGKIQAHLFNAKARDYDSCLEAALFQNDISTSVVTTLIDTVKQHTHLITEYFQLKQKALGLSDFHFYDVYAPLVASEASRHYSYQEAVTLICDSLSLLGNDYVETLRKGLTSDGWVDKYENTNKRSGAYSSGCYDSKPYILLNYTGTLYDVSVVAHEGGHSMHSFLSHKHQSYHEAQYPIFLAEIASTLNETLLMEFLLKQAPSKEEKIAILSRSLDTVFATLFRQTLFAAFELEMHSAAEQGLPLTEEFFSQSYEKLQRLFYGDCITFDEHSCIEWARIPHFYYNFYVYQYATGIIASLCFSERILSGEEGAQEAYLTFLRSGGSDFPIEILKKSGLDMTSSAPMLKAFSYIERKLEELASLLEGHHHHHH | soluble
